The test system of assay [1] is Mv1Lu cells. In words: FACS analysis of DNA content (propidium iodide). The note with it: 72 hour-induction. Format: cell-based, mink. The procedure:
(§1) MvlLu cells carrying vector alone, wild-type FLAG-AIM-1 (WT) or FLAG-AIM-1 (K-R) were grown in the presence or absence of doxycycline (tetracycline analog) for 24 hours and then subjected to western blot with anti-FLAG antibody (FIG. 4A). […] In addition, the size of these cells was much larger than normal cells (FIGS. 4Bf and 5D). In these abnormal cells, however, spindle. functions including chromosome disjunction and late anaphase spindle elongation as well as nuclear division appeared unaffected (data not shown). This was further confirmed by flow cytometry (FACS) (FIG. 4C). […] Namely, apocytes appeared because karyokinesis advances but cytokinesis is inhibited.
Cell samples were harvested and fixed with ethanol, stained with propidium iodide for FACS analysis.
In general terms: Flow cytometry measures light scatter and fluorescence of single cells or particles in a stream.

Assay [2] deals with Mv1Lu cells. In words: Abnormal cytokinesis: cells having two or more nuclei, tetracycline-inducible expression, Giemsa staining. Format: cell-based, mink. The settings on record: for percentage of cells having two or more nuclei to the total number of cells: Mv1Lu, 72 hours. The procedure: as §1
Then, asynchronous cells transfected with vector alone (a, d), FLAG-AIM-1 (WT) (b, e) or FLAG-AIM-1 (K-R) (c, f) were grown with (a-c) or without (d-f) DOX for 72 hours and stained with Giemsa's solution. Results are shown in FIG. 4B, wherein upper panels are called as a, b and c from left to right, and lower panels are called as d, e and f from left to right.
(§2) (2) Abnormal Cytokinesis in Cells Expressing AIM-1 (K-R) Plasmid FLAG-AIM-1 (WT), FLAG-AIM-1 (K-R) or a control plasmid pEF/hygI was cotransfected with a reporter construct RSV-β-galactosidase at a ratio of 10:1 into NRK-49F cells and human diploid fibroblast KD cells (a kind gift of late Dr. Takeo Kakunaga) by Lipofectin method. After 24 hours, 1×10^3 cells were seeded per 60 mm dish, and 72 hours after transfection, cells were fixed in 1.25% glutaraldehyde/PBS and stained by a method described in literature (Shu et al., J.C.S. 108:2955-62, 1995) to observe expression of β-galactosidase. MvlLu cells were also tested under the conditions described in (1) B above.
1. The figures in the table mean the percentage of cells having two or more nuclei to β-galactosidase positive cells for NRK-49F cells and KD cells or the percentage of cells having two or more nuclei to the total number of cells for MvlLu cells. For each cell line, 160 or more cells were tested.

For assay [3], the system named is Mv1Lu cells. As to the kind of experiment: Growth for 2 weeks with or without DOX, Giemsa staining. It counts as cell-based, mink. The note with it: grown 2 weeks with or without doxycycline. The procedure: The nuclei of these AIM-1 (K-R)-expressing cells divided 3 to 4 times during 4 to 5 days, resulting in more than 10 nuclei per cell (FIG. 5D).
Mv1Lu cells transfected with FLAG-AIM-1 (WT) or FLAG-AIM-1 (K-R) were grown with or without DOX for 2 weeks and stained with Giemsa's solution.

Assay [4] concerns human diploid fibroblast KD cells. As to the kind of experiment: Abnormal cytokinesis: cells having two or more nuclei after transient transfection. Format: cell-based. The note with it: 72 hours after transfection.
Text: (§3) To confirm the generality of this observation, AIM-1 (WT) and AIM-1 (K-R) plasmids were transiently expressed in NRK-49F cells and human diploid fibroblast KD cells and the results were compared with those obtained in a control transfected with vector alone. These constructs were transfected into cell-s with a reporter construct […] to prepare β-galactosidase-expressing plasmids for use as a positive internal control for transfection (Table 1).
as §2
(§4) 1. The figures in the table mean the percentage of cells having two or more nuclei to β-galactosidase positive cells for NRK-49F cells and KD cells or the percentage of cells having two or more nuclei to the total number of cells for MvlLu cells. […]

The test system of a further assay is NRK-49F cells. The assay is described as above. The note with it: 72 hours after transfection. Format: cell-based, rat.
Text: as §3, §2, §4

“And” between values parts separate entries of the source, which are not always exact repeats. Equal values may be shown once.

B1: AIM-1 (K-R): kinase-inactive (dominant negative) FLAG-AIM-1 in which lysine at the 109-position was replaced by arginine, expressed from plasmid (protein, UniProt O55099 1-343, looked up, variant K109R)
Aurora kinase B: MAQKENVYPWPYGSKTSQSGLNTLPQRVLRKEPAVTPAQALMNRSNSQSTAVPGQKLTENKGATALQGSQSRQPFTIDNFEIGRPLGKGKFGNVYLAREKKSRFIVALRILFKSQIEKEGVEHQLRREIEIQAHLKHPNILQLYNYFYDQQRIYLILEYAPRGELYKELQKSGTFDEQRTATIMEELSDALMYCHKKKVIHRDIKPENLLLGLQGELKIADFGWSVHAPSLRRKTMCGTLDYLPPEMIEGRMHNEMVDLWCIGVLCYELMVGNPPFESPSHSETYRRIVKVDLKFPSSMPLGAKDLISKLLKHNPSQRLPLEQVSAHPWVRANSRRVLPPSAL
modifications: N-terminal FLAG tag
On to B1, for which, in the assay on Mv1Lu cells [1], the “cell population with 4N or 8N DNA / cell cycle pattern (FACS)” value is given as “dramatically increased”. Moreover, the nuclei per cell entry with Mv1Lu cells [2] (Mv1Lu cells expressing construct, during 4 to 5 days) is “more than 10”. Further, the “percentage of cells having two or more nuclei to the total number of cells” value in the assay on Mv1Lu cells [2] (DOX(+) (not induced)) was 7.7%; in the assay on Mv1Lu cells [2] (DOX(−) (induced)), 68.4%; in the assay on Mv1Lu cells [2] (DOX(−) (induced), listed as FLAG-AIM-1 (K-R)), “about 68%”. Besides, in the assay with Mv1Lu cells [3], the “effect on growth potency (mitotic inhibition)” value is listed as “miotic inhibition was observed”. In addition, the “percentage of cells having two or more nuclei to β-galactosidase positive cells” value in assay [4] was 38% and 38.4%; in the assay with NRK-49F cells, 62%.

Values taken from patent US6759212B1, “Cell cycle-regulating proteins” (Chugai Seiyaku Kabushiki Kaisha, priority 1997, dated 2004).
